{"source": "paper PMC4052849", "about": "(2014)", "binders": {"B1": {"name": "IFN-γ (protein)", "chain": "QDPYVKEAENLKKYFNAGHSDVADNGTLFLGILKNWKEESDRKIMQSQIVSFYFKLFKNFKDDQSIQKSVETIKEDMNVKFFNSNKKKRDDFEKLTNYSVTDLNVQRKAIHELIQVMAELSPAAKTGKRKRSQMLFRG"}}, "biological_target": "T1, DS-SILY20 (decorin mimic, SILY peptide-dermatan sulfate conjugate) (about 20 SILY peptides conjugated via BMPH to dermatan sulfate)", "T1 chain": "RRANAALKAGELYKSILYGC", "assay": "solid-phase binding assay"}
{"binder": "B1", "values": [{"measurement": "Kd", "value": 55.1, "unit": "nM"}]}
